Results on four molecules are retold here after publication PMC3098377, “CpG Islands Recruit a Histone H3 Lysine 36 Demethylase”.

For one series, the system named is KDM2A 1-747 (human). Put plainly: SPR. To be noted: EMSA: 4% Ficoll 400, 20 mM Hepes pH 7.9, 150 mM KCl, 1 mM EDTA, 0.5 mM DTT, 25 ng/ul poly-dAdT, room temperature, 0.8% agarose gel 0.5x TBE 4 C; SPR: 10 mM ….
Another series deals with T1, KDM2A ZF-CxxC domain (human, UniProt Q9Y2K7 544-648).
T1 sequence: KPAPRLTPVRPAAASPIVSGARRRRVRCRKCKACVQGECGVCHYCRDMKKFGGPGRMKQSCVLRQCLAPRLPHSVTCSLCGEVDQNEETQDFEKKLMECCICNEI
Put plainly: EMSA; EMSA: 4% Ficoll 400, 20 mM Hepes pH 7.9, 150 mM KCl, 1 mM EDTA, 0.5 mM DTT, 25 ng/ul poly-dAdT, room temperature, 0.8% agarose gel 0.5x TBE 4 C; SPR: 10 mM Hepes pH 7.9, 150 mM NaCl, 1 mM DTT, further additive truncated in material, KDM2A 0-3 uM. To be noted: protein: recombinant; tags: His (pET30b); label: 32P 5' end; blunt.

As to 75 bp probe, 6 CpG, the Kd with KDM2A 1-747 (human) was 560 nM.
The same measure, in the same setting: the figure for 75 bp probe, 1 CpG is 640 nM.

B1: short probe, CpGs methylated (dsDNA)
DNA 1: GTAGGCGGTGCTACACGGTTCCTGAAGTG
DNA 2: CACTTCAGGAACCGTGTAGCACCGCCTAC
modifications: CpG methylated (5mC); strands and method not stated
Take B1: the binding result in the series with KDM2A ZF-CxxC domain is “no binding”.

B2: short probe with two CpGs (dsDNA)
DNA 1: GTAGGCGGTGCTACACGGTTCCTGAAGTG
DNA 2: CACTTCAGGAACCGTGTAGCACCGCCTAC
As for B2, in the series with KDM2A ZF-CxxC domain, the binding result was “binds”.
